Laboratory results taken from publication PMC8244287 (Current Research in Structural Biology, 2021).

Target: the molecule itself
Experiment: SDS-PAGE

B1: BbZIP, zinc transporter from Bordetella bronchiseptica, full-length, N-terminal His6 (natural protein, UniProt A0A0H3LM39 1-309, looked up)
chain: MNQPSSLAADLRGAWHAQAQSHPLITLGLAASAAGVVLLLVAGIVNALTGENRVHVGYAVLGGAAGFAATALGALMALGLRAISARTQDAMLGFAAGMMLAASAFSLILPGLDAAGTIVGPGPAAAAVVALGLGLGVLLMLGLDYFTPHEHERTGHQGPEAARVNRVWLFVLTIILHNLPEGMAIGVSFATGDLRIGLPLTSAIAIQDVPEGLAVALALRAVGLPIGRAVLVAVASGLMEPLGALVGVGISSGFALAYPISMGLAAGAMIFVVSHEVIPETHRNGHETTATVGLMAGFALMMFLDTALG
stoichiometry N: 2
